One molecule from US20180223372A1, “IDENTIFICATION OF PREDICTIVE BIOMARKERS ASSOCIATED WITH WNT PATHWAY INHIBITORS” (OncoMed Pharmaceutical, Inc., priority 2015, published 2018) can be followed below.

For assay [1], the system named is OMP-LU02 lung tumor. In words: OMP-LU02 NSCLC xenograft, OMP-18R5 vs control antibody. Conditions: OMP-LU02 adenocarcinoma; 15-20 mg/kg intraperitoneally weekly; tumor volume vs control antibody. Format: in vivo, NOD/SCID mice. An excerpt:
(§1) The non-small cell lung cancer (NSCLC) tumor xenograft models OMP-LU02, OMP-LU11, OMP-LU24, OMP-LU25, OMP-LU33, OMP-LU45, and OMP-LU56 (and other OncoMed models described herein) were established at OncoMed Pharmaceuticals from minimally passaged, patient-derived tumor specimens. The tumor specimens were examined by a pathologist and classified as lung tumors. OncoMed relies on these classifications unless further analyses are done on any specific tumor and a reclassification is deemed necessary. […] Tumor-bearing mice were randomized into groups (n=8-10 per group) and treated with control antibody or anti-FZD antibody OMP-18R5. The antibodies were dosed at 15-20 mg/kg and were administered intraperitoneally on a weekly basis. […] Data are expressed as mean±S.E.M.
(§2) To determine if a tumor was responsive to anti-FZD antibody OMP-18R5, tumor volume data from mice treated with the control antibody were compared with tumor volume data from mice treated with OMP-18R5.

The subject of assay [2] is genes in the Wnt, Notch, and stem cell pathways; Wnt pathway target genes including AXIN2 and LEF1. The experiment in a line: pharmacodynamics (PD) biomarker analysis. In kind it is in vivo. Conditions: data not shown. As to the method:
In addition, a pharmacodynamics (PD) biomarker analysis was performed and confirmed inhibition of genes in the Wnt. Notch, and stem cell pathways by treatment with OMP-18R5.

Assay [3] concerns OMP-LU45 lung tumor. The experiment in a line: OMP-LU45 NSCLC xenograft, OMP-18R5 vs control antibody. In kind it is in vivo, NOD/SCID mice. Conditions: OMP-LU45 adenocarcinoma; 15-20 mg/kg intraperitoneally weekly; tumor volume vs control antibody.
Source text: as §1, §2

Assay [4] concerns OMP-LU56 lung tumor. In words: OMP-LU56 NSCLC xenograft, OMP-18R5 vs control antibody. Conditions: OMP-LU56 carcinoma; 15-20 mg/kg intraperitoneally weekly; tumor volume vs control antibody. In kind it is in vivo, NOD/SCID mice.
Source text: as §1, §2

The subject of assay [5] is OMP-LU11 lung tumor. In words: OMP-LU11 NSCLC xenograft, OMP-18R5 vs control antibody. In kind it is in vivo, NOD/SCID mice. Conditions: OMP-LU11 squamous cell carcinoma; 15-20 mg/kg intraperitoneally weekly; tumor volume vs control antibody.
Source text: as §1, §2

The subject of assay [6] is OMP-LU33 lung tumor. The experiment in a line: OMP-LU33 NSCLC xenograft, OMP-18R5 vs control antibody. In kind it is in vivo, NOD/SCID mice. Conditions: OMP-LU33 carcinoma; 15-20 mg/kg intraperitoneally weekly; tumor volume vs control antibody.
Source text: as §1, §2

Assay [7] deals with OMP-LU25 lung tumor. The experiment in a line: OMP-LU25 NSCLC xenograft, OMP-18R5 vs control antibody. Format: in vivo, NOD/SCID mice. The settings on record: OMP-LU25 large cell carcinoma; 15-20 mg/kg intraperitoneally weekly; tumor volume vs control antibody.
Source text: as §1, §2

Assay [8] has as its system OMP-LU24 lung tumor. The experiment in a line: OMP-LU24 NSCLC xenograft, OMP-18R5 vs control antibody. In kind it is in vivo, NOD/SCID mice. Conditions: OMP-LU24 squamous cell carcinoma; 15-20 mg/kg intraperitoneally weekly; tumor volume vs control antibody.
Source text: as §1, §2

B1: OMP-18R5: anti-FZD IgG2 antibody binding FZD1, FZD2, FZD5, FZD7, FZD8; ATCC deposit PTA-9541; heavy/light chain SEQ ID NO:11 and 12 (antibody)
heavy: EVQLVESGGGLVQPGGSLRLSCAASGFTFSHYTLSWVRQAPGKGLEWVSVISGDGSYTYYADSVKGRFTISSDNSKNTLYLQMNSLRAEDTAVYYCARNFIKYVFANWGQGTLVTVSSASTKGPSVFPLAPCSRSTSESTAALGCLVKDYFPEPVTVSWNSGALTSGVHTFPAVLQSSGLYSLSSVVTVPSSNFGTQTYTCNVDHKPSNTKVDKTVERKCCVECPPCPAPPVAGPSVFLFPPKPKDTLMISRTPEVTCVVVDVSHEDPEVQFNWYVDGVEVHNAKTKPREEQFNSTFRVVSVLTVVHQDWLNGKEYKCKVSNKGLPAPIEKTISKTKGQPREPQVYTLPPSREEMTKNQVSLTCLVKGFYPSDIAVEWESNGQPENNYKTTPPMLDSDGSFFLYSKLTVDKSRWQQGNVFSCSVMHEALHNHYTQKSLSLSPGK
light: DIELTQPPSVSVAPGQTARISCSGDNIGSFYVHWYQQKPGQAPVLVIYDKSNRPSGIPERFSGSNSGNTATLTISGTQAEDEADYYCQSYANTLSLVFGGGTKLTVLGQPKAAPSVTLFPPSSEELQANKATLVCLISDFYPGAVTVAWKADSSPVKAGVETTTPSKQSNNKYAASSYLSLTPEQWKSHRSYSCQVTHEGSTVEKTVAPTECS
modifications: Heavy chain amino acid sequence; Light chain amino acid sequence
Turning to B1, the Classification result in assay [1] is on record as “Non-responder”; in assay [3], “Non-responder”; in assay [4], “Non-responder”; in assay [5], “Responder”; in assay [6], “Responder”; in assay [7], “Non-responder”. Further, in assay [8], the Classification entry is given as “Responder”. Besides, the “Wnt pathway target genes including AXIN2 and LEF1” value in assay [2] (OMP-18R5 as a single agent) is “down-regulated significantly”. Moreover, in assay [2] (treatment with OMP-18R5), the “genes in the Wnt, Notch, and stem cell pathways” value is recorded as “inhibition”.
